Assay results from patent US20070059284A1.

Target: Human IL-21 Receptor (human) (UniProt Q9HBE5)
Assay: cell-based or functional assay

**Q.** With “human IL-21-saporin immunotoxin conjugate (from UniProt P20656 25-277)” as the substance, how does the 3H-thymidine incorporation of conjugate-treated MOLT-13 cells relative to IL-21 treated MOLT-13 cells read?
**A.** Its 3H-thymidine incorporation of conjugate-treated MOLT-13 cells relative to IL-21 treated MOLT-13 cells is 70%.

**Q.** What about the density of conjugate-treated DEL cells relative to untreated cells (3H-thymidine) of the same substance?
**A.** The density of conjugate-treated DEL cells relative to untreated cells (3H-thymidine) was 25%.

**Q.** What about the density of conjugate-treated HuT-78 cells relative to untreated cells (3H-thymidine) of the same substance?
**A.** The density of conjugate-treated HuT-78 cells relative to untreated cells (3H-thymidine) was 33%.

**Q.** And the density of conjugate-treated HuT-102 cells relative to untreated cells (3H-thymidine)?
**A.** Its density of conjugate-treated HuT-102 cells relative to untreated cells (3H-thymidine) is 20%.

**Q.** And the density of conjugate-treated YT cells relative to untreated cells (3H-thymidine)?
**A.** The density of conjugate-treated YT cells relative to untreated cells (3H-thymidine) was 33%.

**Q.** What about the growth inhibition of IM-9 cells at the maximal conjugate concentration (250 ng/ml), Alamar Blue proliferation assay of the same substance?
**A.** Its growth inhibition of IM-9 cells at the maximal conjugate concentration (250 ng/ml), Alamar Blue proliferation assay is 79%.

**Q.** And the growth inhibition of RAMOS cells at the maximal conjugate concentration (250 ng/ml), Alamar Blue proliferation assay?
**A.** Its growth inhibition of RAMOS cells at the maximal conjugate concentration (250 ng/ml), Alamar Blue proliferation assay is 65%.
